The values below come from a protein production outcome set (Wang et al. 2014).
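Also: failed if final PepcDB status was selected cloned or expressed and not failed if soluble or beyond.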

This data set is described as follows: label from the status in PepcDB records.
As to “MKNRALLLIDFQKGIESPTQQLYRLPAVLDKVNQRIAVYRQHHAPIIFVQHEETELPFGSDSWQLFEKLDTQPTDFFIRKTHANAFYQTNLNDLLTEQAVQTLEIAGVQTEFCVDTTIRMAHGLGYTCLMTPKTTSTLDNGHLTAAQIIQHHEAIWAGRFLTFLSL”, the protein production result was “not failed”.

Take “MERSEEEIENLWKLQSEVKQRSESVKSIITELEIERGTLKVRALKLKEDSDVLTTWVEMNYLKLTSMDMGRIEEMFEIESEVEGLAGDDAIEDVLRVLEEAAERGELEIGSYLKQVRVLAREQFFLKHLSSFKTQNFHI”: the protein production entry was “failed”. In the case of “MSESVNKKITDGNYDKTLAVKCVNGTFVGKKTEGVIAYKGIPFVGQQPVGKLRWKAPVDVTPSNDVYEAYNYEKAPVQAPGDPAIENGMGEDCLYLNIWRADETVTEKKPVIVWIYGGGFEVGGTSDPQYDCHSLVKENPDVILVSLAYRVSFFGFMHLSHLSDGKDYQDAPNLGLLDQLMGLKWVHENIANFGGDPDNVTIWGESAGGASVTLLPLIKGSHQYFKRVIAQSGAPAQTRSEEQAIAITDHVMKELGCKTVADLLKVSAQEFADTWARLYGFYQVLGIRTFPERDGRCLPLNPWEAYANGAAKDITFLQGCNKDEMNTFLGSIGVDRWNAWANQRKAEKLIQLTDEEKALVESYCNDIQGESYEPTVRLFSQIMFQVPQIRLSEEQTKGGGKSYTYLFTPESSVPLIKCGHITELSALFNHPEITAFTGRAYDETFCKTMRKMWIQFAKTGNPSLTAEMSPDGKAKEWPLYDTEKKVMVLDEQNIHPAKESELKIVDWERTYFLTNYYMP”, the protein production entry is listed as “failed”. To “MNKFLTTIIIKSKCSLLFISSINDSFIYIIRRMINANWSNFTLSWSIARNYWYYFRKCLDGRPFTVFLTSYQIFSTSFCKGNMFYVISSLIIFIQIMNCFLEHHHHHH” belongs “failed”; to “MESFNTFVRQYNDQHAEAIAKGELEALAESSSAFIEKASGIKSRFVMNKEGILDPQRMVPYLPERSNDEWSILCEMAVAAAREALQRAGRSAADIDGVIVACSNLQRAYPAIAVEVQAALGIQGYGYDMNVACSSATFGIQAATTAIQTGQARAILMVNPEICTGHLNFRDRDSHFIFGDACTAVIVERADLAVSKHQFDIVSTRLLTQFSNNIRNNFGFLNRADESGIGKRDKLFVQEGRKVFKDVCPMVAELIGEHLAANEIQVAEVKRFWLHQANLNMNLLITRKLLGRDAEAHEAPVILDSYANTSSAGSVIALHKHQDDLPSGAIGVLSSFGAGYSIGSVILRKH”, “failed”. The value for “MTEIALIGNPNSGKTSLFNLLTGTSQRVGNWPGVTVERKSGNVKKLKEISVQDLPGIYSMSPYSPEEKVARDYLLSNHADSILNVVDATNLERNLYLTTQLIETGIPVTIALNMSDVLKNQGKSINSDKLAYQMGVPVVATSALKNTGVDKAVKKASQTTKGSVDSVQYPTYDAKFEAAIAQIIEVLGQTVPERSSRFYAIKLFERDRLVEEELDLSPFQKKEIKDIIQITEEVFTEDSESIVINQRYAFIERVSQMAQSQDNDFKMSASDKIDKIVTNRVLALPIFAVVMFLVYYLSIQTVGTMGTDWVNDILFGKYVPEFVTGVLEALKVQAWLQSLIIDGVVAGVGTVLGFLPQIFVLFICLGILEDIGYMSRIAFVMDRIFRRFGLSGKSFIPMLISTGCGVPGIMASRTIENERDRRITIMTTTFMPCSAKLSVIALIAGAFFPHNPWIAPSAYFMGMIAIILSGIALKKTSFLGGYTSPFIMELPSYHLPKVDAVLRYAFGKAMSFVKRAGTIIFSLTVLIWFMSSYNFTLHSVDTENSILASLGRLLAWIFTPLGFGNWKATVAALTGLAAKETVVATFGILYNNPDATETTHSLWVSLQGDYTALAAYSFLTFNLLCAPCFASIGAIKREMGNLKWTLVAIAYQTGLAYLVSLIIYQLGLVAFYGKPVTLWTGLALVLLLVMLYFIIRKPRQVKEKVITLDNLSLSHN” was “failed”.

Take “MKTLLIAWHSRTGAARQMAQALERGALAAALALEQPGQLRVRRQAASRTDAAALLAADGYLFCAPENLGSLSGAMKECFDRCYYGVLDRIQGRPYGVAISAGTDGEGAARQVERICTGWRLRAAAPPLIARSGAQTPEQIAAPKQVPADVLARCEELGGLLAATLLMGSLEHHHHHH”: the protein production entry was “failed”.

For “MSALSRWLLIPPVSARLSERYQGYRRHGASPFSAALGCLWTILAWIVFPLEHPRWQRIRDGHKALYPHINAARPRPLDPARYLIQTLWLVMISSTKERHEPRWRSFARLKDVRGRYHQWMDTLPERVRQKTTHLEKEKELGHLSNGARRFILGVIVTFSLILALICITQPFNPLSQFIFLLLLWGVALLVRRMPGRFSALMLIVLSLTVSCRYIWWRYTSTLNWDDPVSLVCGLILLFAETYAWIVLVLGYFQVVWPLNRQPVPLPKEMSQWPTVDIFVPTYNEDLNVVKNTIYASLGIDWPKDKLNIWILDDGGRESFRQFARHVGVHYIARATHEHAKAGNINNALKHAKGEFVAIFDCDHVPTRSFLQMTMGWFLKEKQLAMMQTPHHFFSPDPFERNLGRFRKTPNEGTLFYGLVQDGNDMWDATFFCGSCAVIRRKPLDEIGGIAVETVTEDAHTSLRLHRRGYTSAYMRIPQSAGLATESLSAHIGQRIRWARGMVQIFRLDNPLFGKGLKLAQRLCYLNAMFHFLSGIPRLIFLTAPLAFLLLHAYIIYAPALMIALFVIPHMVHASLTNSKIQGKYRHSFWSEIYETVLAWYIAPPTLVALINPHKGKFNVTAKGGLVEEKYVDWVISRPYIFLVLLNLLGVAAGVWRYYYGPENETLTVIVSLVWVFYNLVILGGAVAVSVESKQVRRAHRVEIAMPGAIAREDGHLFSCTVHDFSDGGLGIKINGQAQVLEGQKVNLLLKRGQQEYVFPTQVVRVTGNEVGLQLMPLTTKQHIDFVQCTFARADTWALWQDSFPEDKPLESLLDILKLGFRGYRHLAEFAPPSVKVIFRSLTALIAWIVSFIPRRPERQAAIQPSDRVMAQAQQ”, the protein production entry is recorded as “failed”. Take “MRFAVLGSGSQGNGTLIASGDTFILVDCGFSLRETERRLALLGVSAAQLSAVLVTHEHADHVHGVGLLSRRYNVPVYLSQGTLRGMRKPVEVAGFLACGQSLHIGSLEVTAARVEHDAYEPLQYVVSDGKRRFGMLTDLGSYDALLLERYQGLDALLIEANHCRDLLARGHYPAFLKQRVGGMQGHLNNHQAARLVHELGWNNLQHLVLAHLSSKNNLPHLARQCFVDTLGCDPDWLQVANQEHGLDWREIALEHHHHHH”: the protein production result is on record as “not failed”. Regarding “METLSDVFATFSQRGDTTAFVHRTGVRRYVFTYLDLHALSLRMNRWLADQGVGEGDRVVLWGPNSPWWAVAFWGIVTRGAVAVPVDFMSGAERAEIIAGLTDAKLVIQSRDKLEHHHHHH”, the protein production entry is “not failed”.

On to “MGNMISAVVAAAGRGSRMMRDMAELGLEPVHKLLLPLNGVTVIEATVKAVLSAGVDECIVVTGHRAGEVEEALSGMDVRVVRNDPVDVPLSASLLRGVRAAGGDIILCAAGDQPAVSPATLRRIAEHADGSTVSILARGESGWLDNARGIGMPLAAGADLLRDYLPLGDGNINPLLWMMLEDGVRLYGVEASRPIELVNINHYSDYLRIRDHFLRTNADGN”, for which the protein production entry was “failed”. To “MSKIFNEELAVIEAAAIAYLTAFNRADIPAVIATYTDDGVLMGPGRPAAVGKDELAEVYLSVFETVGFDMAYEIKEVVQTSADWAFVRSATEGTETNKATGVVTPAAYQELFLLRKSATGSWQTARYCTSKISP” belongs “not failed”; to “MLTEMHIAVIGGDARQLEVIRKLVELDAKLSLIGFDQLDHGFTGAAKESIQNLDFTSVDAIILPVAGTNAKGEVDTIFSNEKVSITKEQIENTPEHFTIYSGIGTPYLENLVSTTNRKLIKLFDRDDVAIYNSIPTVEGTLMMVIQHTDYTIHGSNVMVLGFGRTGMSVARAFQSLGAHVKVGARRSEHIARITEMMFSPFHMQDIEKEVGDIDIVINTIPHLVVTANVISKMPAHTLVIDLASKPGGTDFRYAEKRGVKALLAPGLPGIVAPKTAGQILANVLSQLLAEDVIARKENGE”, “failed”.

Regarding “MTTVAVSSLPQGTSVTLRNVTKSFGTTKVLNGLDLNIHSGELVALLGPSGCGKSTLLRIIAGFEAADQGSVLLDDVDVSGVPTNRRDIGLVFQAYSLFPHLNAVENVMYGLSIRHVAKTEAKSSAVELLASVGLADYADRYPAQLSGGQQQRVALARALATKPRVLLLDEPLSALDAKVRVQLRDEIRALQLETHTTTIMVTHDQEEALVMADRIAVMYNGRFEQVGTPAEIYHSPATAFVAGFVGSMNVLPGVLSTDGTAQTIGCRVPVHAAAGAATLNPGPVDVFVRPEELRLQIANDDLNDHDAVLGTVTSTVLRGAFTSVMVAMGDGLHLRVDLPSKDAQLFTPGCSVMVRIADEPMLCTARRVECVA”, the protein production result is on record as “failed”.

On to “MQRLQHYYQCFLAQLKNFDGIPALLLRLYLAPVFIMAGFSKTQMLNEEVTGFSAIMADPNIIAWFGNSDWGLGLPFPALLANLVILVEFFGGWFLLFGALTRLISIPLMFTMIVAATSVHADNGWFAITPTNSDISPAKVAVWLGIDSAQASLDNSEQTATRLEKMRELIEENGNTDWLYENGNIVVLNNGIEFSTTYFIMLLSLFFIGAGRYTSVDHFVAKRFLIEEKRFS”, for which the protein production entry is listed as “failed”. In the case of “MKFKIHSDITYQVMSPTTFIFNVHALRTESQHILDESLIVTPPIEIEEFSYNSGTSRFVRLKATENTTFSMSYTATVDTQYKVIDQRQELETVPVVDLDGDIIPFLFPSRYCQSDKLQKLAYKEFGKIENVYSKVLAITDWIYNNVEYISGSTNSQTSAFDTITERAGVCRDFAHLGIALCRALSIPARYFTGYAFKLNPPDFHACFEAYIGGNWIIFDATRLVPLNGLVKIATGRDAADAAVASIFGNASSTNMHVECASLDTDFTPFWYDKNSLKGLSFQ”, the protein production entry is reported as “not failed”. To “MVKSDIIIVKNFHGVFCLNLVNEIFENKYKIIDILGKGGMSTVYLAKDIKLQKFWAIKEVSNNINDTSKLKVDLLAETNILKKLDHPALPRIVDIIKRDESLYIVMDFIDGVSLDKFIHKNGAINEKVVLDWAKQICDVLSYLHSQKPNPIIYRDMKPGNLMLTQNGKIKLIDFGIAREYKKEVSKDTTYIGTRGYAAPEQYGDCQSDARTDIYSFGVTLYHMLTGKGPNDPPFELKPVRELNSSLSEGIEHIIEKSTRQDPSLRYQNVDEMLYDIKNIHKLNSKYKKQLVKKYIKVAASACLFIFSVFLIISGVLGIKSDSANEYNNIIENGSKQNGDKAVEYFKQAVDKNSSNPKAYIKIIDTYLENGEYDQSIDFIETNLNNKQSELLKDNELLFKIGMAYFDDESYAKAYQYFNKIKGADISISEPLKYYKPVANALSKVDLQNKDKIVSSITQLEKYIDSRSDVDYKVESYITLAELYRDNPQIFPQNTDKEIGVLEKASSVSANKNNAILYGQLGQAYFDKASESKIEQDKYNFYLNKALDSYKNSIQMGSKISNTYCKLGLIYKYLGNTAESKNTFQKETQLFSDDYKGYMEMALLEYDSQQSAAPETRNYSEFVKYYNSTVSKKYNENDVDFMTLKQEYNDLKNQGVIK” belongs “failed”; to “MGQIQQPIQGYDSTSPCGDNRDPQPFDFNFIFAFQPIVNIKNGHIYAQEALVRGLKGEGAHSILSRIDENNRYSFDQKARDKALQSALSCNWDGAISINFMPNAVYYPEYCLSQTLSTCEKLGINPARLIFEWSEKEYLTEYDHIRHVISRYKHLNFKVAFDDFGGLYSNFNLLTAYHPDIIKLDRHYVVGIEHDKRRRAVVKAMVGLCRDLGIDFVVEGVETIEEFKVLQDLGVDLMQGFLLARPALMQMPQATMPP”, “failed”.
